Biological target: SaNsrP, transmembrane permease of the BceAB-type ABC transporter SaNsrFP from Streptococcus agalactiae (S. agalactiae)
Assay: SAXS

SaNsrF, nucleotide-binding domain of the BceAB-type ABC transporter SaNsrFP from Streptococcus agalactiae (natural protein)
stoichiometry N: 2

Source: article PMC12484072
